Data taken from patent US20220332804A1 (CSL INNOVATION, published 2022).

Columns and labels:
Test in all cases: SPR, antibody captured, C2 as analyte;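 also: biacore SPR at 37 °C, anti-C2 mAbs captured via goat anti-human IgG on CM5 chips, double-referenced sensorgrams fit to a 1:1 kinetic or steady-state model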
[1] = target: T1, human C2 V448A (human, UniProt P06681 21-752)
T1 sequence: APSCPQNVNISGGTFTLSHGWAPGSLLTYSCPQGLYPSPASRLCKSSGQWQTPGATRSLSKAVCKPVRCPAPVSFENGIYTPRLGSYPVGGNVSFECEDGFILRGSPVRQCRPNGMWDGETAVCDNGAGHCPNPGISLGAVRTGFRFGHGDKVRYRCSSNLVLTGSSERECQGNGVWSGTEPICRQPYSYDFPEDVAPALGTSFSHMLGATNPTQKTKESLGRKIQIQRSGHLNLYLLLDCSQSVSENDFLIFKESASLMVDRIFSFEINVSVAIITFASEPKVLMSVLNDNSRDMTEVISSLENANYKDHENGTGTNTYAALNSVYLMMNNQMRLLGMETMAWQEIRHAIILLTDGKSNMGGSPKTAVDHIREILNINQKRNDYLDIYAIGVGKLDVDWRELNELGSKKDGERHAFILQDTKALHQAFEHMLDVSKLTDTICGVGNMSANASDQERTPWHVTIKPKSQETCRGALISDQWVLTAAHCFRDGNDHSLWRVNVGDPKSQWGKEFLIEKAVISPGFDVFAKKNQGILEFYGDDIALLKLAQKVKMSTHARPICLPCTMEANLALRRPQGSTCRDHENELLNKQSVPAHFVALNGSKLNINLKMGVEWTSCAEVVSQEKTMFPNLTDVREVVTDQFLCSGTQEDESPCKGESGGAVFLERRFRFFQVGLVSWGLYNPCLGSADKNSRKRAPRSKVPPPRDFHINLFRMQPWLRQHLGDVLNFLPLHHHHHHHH

[2] = target: T2, human C2 P724A (human, UniProt P06681 21-752)
T2 sequence: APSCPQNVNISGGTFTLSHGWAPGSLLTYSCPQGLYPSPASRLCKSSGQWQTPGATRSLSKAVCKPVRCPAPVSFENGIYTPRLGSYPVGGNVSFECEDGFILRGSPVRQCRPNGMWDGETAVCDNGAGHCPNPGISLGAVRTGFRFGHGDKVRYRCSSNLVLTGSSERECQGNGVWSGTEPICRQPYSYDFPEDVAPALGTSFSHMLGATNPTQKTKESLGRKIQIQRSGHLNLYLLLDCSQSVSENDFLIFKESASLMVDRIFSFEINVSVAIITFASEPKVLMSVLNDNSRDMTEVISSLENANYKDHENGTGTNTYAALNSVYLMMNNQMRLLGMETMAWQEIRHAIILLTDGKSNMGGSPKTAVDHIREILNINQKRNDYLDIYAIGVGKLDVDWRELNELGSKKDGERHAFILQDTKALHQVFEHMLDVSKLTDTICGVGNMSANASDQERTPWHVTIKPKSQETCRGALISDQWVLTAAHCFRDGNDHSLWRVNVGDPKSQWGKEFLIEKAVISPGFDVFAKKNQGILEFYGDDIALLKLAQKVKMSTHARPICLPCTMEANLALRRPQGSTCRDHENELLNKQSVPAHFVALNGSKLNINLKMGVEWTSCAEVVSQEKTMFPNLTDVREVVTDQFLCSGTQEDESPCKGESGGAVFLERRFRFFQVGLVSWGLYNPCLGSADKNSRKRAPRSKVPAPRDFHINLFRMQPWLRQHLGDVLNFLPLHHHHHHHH

[3] = target: T3, human C2 E556A (human, UniProt P06681 21-752)
T3 sequence: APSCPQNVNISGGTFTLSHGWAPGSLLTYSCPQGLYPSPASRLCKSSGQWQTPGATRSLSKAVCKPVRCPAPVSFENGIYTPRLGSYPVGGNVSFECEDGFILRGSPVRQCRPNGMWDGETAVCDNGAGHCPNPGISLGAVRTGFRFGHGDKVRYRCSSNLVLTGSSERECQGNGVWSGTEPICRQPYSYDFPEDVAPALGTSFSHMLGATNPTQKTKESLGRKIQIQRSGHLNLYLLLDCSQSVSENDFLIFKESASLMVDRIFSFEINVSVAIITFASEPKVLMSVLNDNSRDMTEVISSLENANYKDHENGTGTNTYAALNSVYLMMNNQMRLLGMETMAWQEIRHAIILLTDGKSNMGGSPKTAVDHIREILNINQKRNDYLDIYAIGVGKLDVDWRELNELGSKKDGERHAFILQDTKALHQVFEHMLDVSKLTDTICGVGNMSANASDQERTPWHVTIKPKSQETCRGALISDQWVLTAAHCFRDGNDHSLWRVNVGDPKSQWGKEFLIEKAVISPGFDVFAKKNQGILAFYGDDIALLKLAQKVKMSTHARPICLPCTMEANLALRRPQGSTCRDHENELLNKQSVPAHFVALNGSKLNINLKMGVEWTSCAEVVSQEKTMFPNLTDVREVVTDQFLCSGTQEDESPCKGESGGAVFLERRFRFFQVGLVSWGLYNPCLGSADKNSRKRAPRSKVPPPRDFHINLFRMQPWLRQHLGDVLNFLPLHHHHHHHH

[4] = target: T4, human C2 I272A (human, UniProt P06681 21-752)
T4 sequence: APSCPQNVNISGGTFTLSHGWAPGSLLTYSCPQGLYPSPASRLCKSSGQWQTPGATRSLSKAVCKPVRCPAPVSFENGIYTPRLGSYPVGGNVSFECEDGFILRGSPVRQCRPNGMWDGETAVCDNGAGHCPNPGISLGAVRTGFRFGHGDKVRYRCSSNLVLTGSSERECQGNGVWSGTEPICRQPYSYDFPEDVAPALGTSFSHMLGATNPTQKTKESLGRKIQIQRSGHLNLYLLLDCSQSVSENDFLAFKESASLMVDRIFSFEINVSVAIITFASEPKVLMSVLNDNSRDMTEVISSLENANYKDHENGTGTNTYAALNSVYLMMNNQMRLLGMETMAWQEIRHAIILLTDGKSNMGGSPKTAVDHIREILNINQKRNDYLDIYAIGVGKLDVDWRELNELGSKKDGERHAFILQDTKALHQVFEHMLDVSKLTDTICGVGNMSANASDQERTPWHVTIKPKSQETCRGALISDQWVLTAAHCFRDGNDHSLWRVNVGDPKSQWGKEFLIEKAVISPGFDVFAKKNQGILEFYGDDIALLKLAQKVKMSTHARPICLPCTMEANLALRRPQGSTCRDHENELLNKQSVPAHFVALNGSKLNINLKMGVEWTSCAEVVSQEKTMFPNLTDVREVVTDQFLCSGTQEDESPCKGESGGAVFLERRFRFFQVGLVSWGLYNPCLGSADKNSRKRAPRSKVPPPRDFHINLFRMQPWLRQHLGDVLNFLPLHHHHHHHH

B1: RF16-226 (antibody, human IgG4 S228P, lambda)
heavy: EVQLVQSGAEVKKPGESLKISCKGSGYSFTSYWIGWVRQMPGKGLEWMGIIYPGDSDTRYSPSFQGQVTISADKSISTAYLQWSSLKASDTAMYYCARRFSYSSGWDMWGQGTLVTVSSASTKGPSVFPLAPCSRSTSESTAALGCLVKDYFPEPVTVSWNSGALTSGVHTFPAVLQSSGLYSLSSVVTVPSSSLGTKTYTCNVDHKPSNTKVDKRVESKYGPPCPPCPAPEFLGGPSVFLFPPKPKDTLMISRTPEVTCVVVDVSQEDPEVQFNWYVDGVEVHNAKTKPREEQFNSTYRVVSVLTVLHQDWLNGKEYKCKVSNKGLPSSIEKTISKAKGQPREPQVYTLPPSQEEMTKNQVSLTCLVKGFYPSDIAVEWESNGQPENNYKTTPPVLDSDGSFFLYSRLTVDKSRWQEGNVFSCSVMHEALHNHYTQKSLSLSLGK
light: SYELTQPPSVSVSPGQTARITCSGDALTSKYVAWYQQKSGLAPLLVIYEDTRRPSGIPAKFSGSSSGSVATLTISGAHGDDEADYYCYSTDASGHQRVFGGGTKLTVLSQPKAAPSVTLFPPSSEELQANKATLVCLISDFYPGAVTVAWKADGSPVKAGVETTKPSKQSNNKYAASSYLSLTPEQWKSHRSYSCQVTHEGSTVEKTVAPTECS
notes: pH-dependent anti-C2 antibody from a phage display library; also called WT
- Kd [1]: 4.4 nM
- Kd [2]: 397 nM
- Kd [3]: 5.9 nM
- Kd [4]: 10.4 nM
